Test results reported in patent US20110305716A1.
Values belong to the substance of their own block, whether it stands above or below them.

Key:
[1] = target: rat total IgG (Sigma-Aldrich) (rat); experiment: ELISA; rat total IgG coated on plate, 10 ng TGF-beta in PBS, 18 h 4 C, bound TGF-beta detected with TGF-beta ELISA kit
[2] = target: rat total IgG (Sigma-Aldrich) (rat); experiment: ELISA; rat total IgG coated on plate, 10 ng TGF-beta in 10% glycerol in PBS, 18 h 4 C, bound TGF-beta detected with TGF-beta ELISA kit
[3] = target: rat total IgG (Sigma-Aldrich) (rat); experiment: ELISA; rat total IgG coated on plate, 10 ng TGF-beta in 0.1M Tris pH 7.4 (0 mM NaCl), 18 h 4 C, bound TGF-beta detected with TGF-beta ELISA kit
[4] = target: rat total IgG (Sigma-Aldrich) (rat); experiment: ELISA; rat total IgG coated on plate, 10 ng TGF-beta in 10% glycerol in 0.1M Tris pH 7.4, 18 h 4 C, bound TGF-beta detected with TGF-beta ELISA kit
[5] = target: TGF-beta receptors on mink lung epithelial cells (ATCC CCL-64) (mink); experiment: cell-based or functional assay
[6] = target: Mouse IgG1 (eBioscience) (mouse); experiment: Sephadex G-50 gel filtration of the TGF-beta/IgG mixture; fractions assayed by TGF-beta ELISA
[7] = target: Mouse IgG2a (eBioscience) (mouse); experiment: as above
[8] = target: total mouse IgG (Sigma-Aldrich) (mouse); experiment: 20 ng TGF-beta and 1 ug soluble total mouse IgG, 5 min in PBS at 42 C; Sepharose G-50 spin column; TGF-beta ELISA of eluate
[9] = target: total mouse IgG (Sigma-Aldrich) (mouse); experiment: 20 ng TGF-beta and 1 ug soluble total mouse IgG, 5 min in PBS at room temperature; Sepharose G-50 spin column; TGF-beta ELISA of eluate
[10] = target: total mouse IgG (Sigma-Aldrich) (mouse); experiment: 20 ng TGF-beta and 1 ug soluble total mouse IgG, 5 min in 0.5x PBS pH 11 at room temperature; Sepharose G-50 spin column; TGF-beta ELISA of eluate

- Net Absorbance (450) (absorbance at 450) [1]: 0.18
- Net Absorbance (450) (absorbance at 450) [2]: 0
- Net Absorbance (450) (absorbance at 450) [3]: 1.02
- Net Absorbance (450) (absorbance at 450) [4]: 0.7
Substance: TGF-beta (Leinco Technologies, St. Louis, Mo.) (from UniProt P01137 279-390) (ligand)

Substance: mouse AcTigg (TGF-beta 1 non-covalently bound to mouse IgG1), PEG-precipitated, intact (from UniProt P01137 279-390)
- Cell Viability (OD450/Control OD450) at 0.25 pg/mL AcTigg (OD450/Control OD450) [5]: 0.965
- Cell Viability (OD450/Control OD450) at 2.5 pg/mL AcTigg (OD450/Control OD450) [5]: 0.924
- Cell Viability (OD450/Control OD450) at 25 pg/mL AcTigg (OD450/Control OD450) [5]: 0.897
- Cell Viability (OD450/Control OD450) at 250 pg/mL AcTigg (OD450/Control OD450) [5]: 0.817
- Cell Viability (OD450/Control OD450) at 2500 pg/mL AcTigg (OD450/Control OD450) [5]: 0.678

- percent of TGF-beta eluting in the IgG-bound fraction [6]: 40 to 50%
- percent of TGF-beta eluting in the IgG-bound fraction [7]: 40 to 50%
- Net Absorbance (450) (absorbance at 450) [8]: 0.117
- Net Absorbance (450) (absorbance at 450) [9]: 0.193
- Net Absorbance (450) (absorbance at 450) [10]: 0.558
Substance: Transforming growth factor-beta 1 (Peprotech) (from UniProt P01137 279-390) (ligand)
- Cell Viability (OD450/Control OD450) at 0.25 pg/mL acid-dissociated (Treated) AcTigg (OD450/Control OD450) [5]: 0.621
- Cell Viability (OD450/Control OD450) at 2.5 pg/mL acid-dissociated (Treated) AcTigg (OD450/Control OD450) [5]: 0.645
- Cell Viability (OD450/Control OD450) at 25 pg/mL acid-dissociated (Treated) AcTigg (OD450/Control OD450) [5]: 0.651
- Cell Viability (OD450/Control OD450) at 250 pg/mL acid-dissociated (Treated) AcTigg (OD450/Control OD450) [5]: 0.651
- Cell Viability (OD450/Control OD450) at 2500 pg/mL acid-dissociated (Treated) AcTigg (OD450/Control OD450) [5]: 0.616
